Test results published in article PMC9482650, “Quantitative fragmentomics allow affinity mapping of interactomes” (Nature Communications, 2022).

Experiments:
HEK293T cells = experiment: Label-free MS proteome of stable cell lines expressing HPV16 E6 or E6ΔPBM; format: cell-based, human; conditions: protein level; for Difference log2 E6/Ctrl / Ratio E6/Ctrl: E6 cell line vs control; for Difference log2 dPBM/E6 / Ratio dPBM/E6: dPBM cell line vs E6 cell line; for Difference log2 dPBM/Ctrl / Ratio dPBM/Ctrl: dPBM cell line vs control
Protocol: HEK293T and HeLa cells were authenticated and found 100% identity to ATCC cat. CRL-3216 and ATCC cat. CCL-2, respectively. Jurkat and HaCat cell lines were not authenticated (original source: ECACC and Deutsches Krebsforschungszentrum DKFZ, respectively). HeLa cells were grown in DMEM (1 g/L glucose, Gibco) medium completed with 5% FCS and 40 μg/mL gentamicin, diluted every 3rd/4th day 1/10. HaCat cells were grown in DMEM (1 g/L glucose, Gibco) medium completed with 10% FCS and 40 μg/mL gentamicin, diluted every 3rd/4th day 1/4. Jurkat cells were grown in RPMI (Gibco) medium completed with 10% FCS and 40 μg/mL gentamicin, diluted every 3rd/4th day 1/12. All cells were kept at 37 °C and 5% CO2. For proteomics analyses cells were seeded on T-175 flasks. After they reached confluency, adherent cells were washed with PBS once and collected by scraping with ice-cold lysis buffer (Hepes-KOH pH 7.5 50 mM, NaCl 150 mM, Triton X-100 1%, complete EDTA-free protease inhibitor cocktail 1×, EDTA 2 mM, TCEP 5 mM, glycerol 10%). Jurkat cells were collected by 1000 g × centrifugation, washed once with PBS, then collected by 1000 g × 5 min centrifugation again and lysed in ice-cold lysis buffer. Lysates were sonicated 4 × 20 s with 1 s long pulses on ice, then incubated rotating at 4 °C for 30 min. Lysates were centrifuged at 12,000 rpm 4 °C for 20 min and supernatant was kept for further analysis. Concentration determination was carried out by standard Bradford method (Bio-Rad Protein Assay Dye Reagent #5000006) using BSA (MP BIomedicals #160069) as control on a Bio-Rad SmartSpec 3000 spectrophotometer instrument.
The samples were precipitated with TCA 20% overnight at 4 °C and centrifuged at 14,000 rpm for 10 min at 4 °C. The protein pellets were washed twice with 1 mL cold acetone and air dried. The protein extracts were solubilized in urea 8 M, reduced with 5 mM TCEP for 30 min, and alkylated with 10 mM iodoacetamide for 30 min in the dark. Double digestion was performed at 37 °C with 500 ng endoproteinase Lys-C for 4 h, followed by fourfold dilution and an overnight digestion with 500 ng trypsin. Peptide mixtures were then desalted on C18 spin-column and dried on Speed-Vacuum.
Samples were analyzed using an Ultimate 3000 nano-RSLC (Thermo Scientific, San Jose California) coupled in line with a LTQ-Orbitrap ELITE mass spectrometer via a nano-electrospray ionization source (Thermo Scientific, San Jose California). Peptide mixtures were injected in 0.1% TFA on a C18 Acclaim PepMap100 trap-column (75 µm ID × 2 cm, 3 µm, 100 Å, Thermo Fisher Scientific) for 3 min at 5 µL/min with 2% ACN, 0.1% FA in H2O and then separated on a C18 Accucore nano-column (75 µm ID × 50 cm, 2.6 µm, 150 Å, Thermo Fisher Scientific) at 220 nl/min and 38 °C with a 90 min linear gradient from 5% to 30% buffer B (A: 0.1% FA in H2O/B: 99% ACN, 0.1% FA in H2O), regeneration at 5% B. The mass spectrometer was operated in positive ionization mode, in data-dependent mode with survey scans from m/z 350–1500 acquired in the Orbitrap at a resolution of 120,000 at m/z 400. The 20 most intense peaks from survey scans were selected for further fragmentation in the Linear Ion Trap with an isolation window of 2.0 Da and were fragmented by CID with normalized collision energy of 35%. (TOP20CID method) Unassigned and single charged states were excluded from fragmentation. The Ion Target Value for the survey scans (in the Orbitrap) and the MS2 mode (in the Linear Ion Trap) were set to 1E6 and 5E3 respectively and the maximum injection time was set to 100 ms for both scan modes. Dynamic exclusion was set to 20 s after one repeat count with mass width at ±10 ppm.
Proteins were identified by database searching using SequestHT (Thermo Fisher Scientific) with Proteome Discoverer 2.4 software (PD2.4, Thermo Fisher Scientific) on human FASTA database downloaded from SwissProt (reviewed, release 2020_11_27, 20304 entries, https://www.uniprot.org/). […]

HaCat cell extract preys = experiment: PDZ-AP-MS, biotinylated MBP-PDZ baits; format: binding, human
Outline: (§1)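 Biotinylated His6-AviTag-MBP-PDZ baits, or MBP alone, saturated streptavidin resin and were then biotin-blocked. Each was incubated with 1 mg cell lysate for 2 h at 4 °C, washed, and eluted in 8 M urea. Eluates were digested with Lys-C/trypsin, run by nanoLC-MS/MS on an Orbitrap Elite (top20 CID) and searched against human SwissProt.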

HeLa cell extract preys = experiment: PDZ-AP-MS, biotinylated MBP-PDZ baits; format: binding, human; conditions: PDZ-AP-MS fold change of the PBM-protein prey
Outline: as §1

[1] = tested on: Jurkat cell extract preys; experiment: PDZ-AP-MS, biotinylated MBP-PDZ baits; format: binding, human; conditions: for Difference log2: enrichment of prey
Outline: as §1

[2] = PDZ-AP-MS fold change of the PBM-protein prey, bait MBP-PDZ DLG1_1
[3] = PDZ-AP-MS fold change of the PBM-protein prey, bait MBP-PDZ DLG1_2
[4] = PDZ-AP-MS fold change of the PBM-protein prey, bait MBP-PDZ SCRIB_1
[5] = PDZ-AP-MS fold change of the PBM-protein prey, bait MBP-PDZ SCRIB_2
[6] = PDZ-AP-MS fold change of the PBM-protein prey, bait MBP-PDZ SNX27
[7] = PDZ-AP-MS fold change of the PBM-protein prey, bait MBP-PDZ TX1BP3
[8] = bait SCRIB_1 PDZ, fold change of prey

B1: ZW10 (protein, UniProt O43264 2-779, looked up)
Centromere/kinetochore …: ASFVTEVLAHSGRLEKEDLGTRISRLTRRVEEIKGEVCNMISKKYSEFLPSMQSAQGLITQVDKLSEDIDLLKSRIESEVRRDLHVSTGEFTDLKQQLERDSVVLSLLKQLQEFSTAIEEYNCALTEKKYVTGAQRLEEAQKCLKLLKSRKCFDLKILKSLSMELTIQKQNILYHLGEEWQKLIVWKFPPSKDTSSLESYLQTELHLYTEQSHKEEKTPMPPISSVLLAFSVLGELHSKLKSFGQMLLKYILRPLASCPSLHAVIESQPNIVIIRFESIMTNLEYPSPSEVFTKIRLVLEVLQKQLLDLPLDTDLENEKTSTVPLAEMLGDMIWEDLSECLIKNCLVYSIPTNSSKLQQYEEIIQSTEEFENALKEMRFLKGDTTDLLKYARNINSHFANKKCQDVIVAARNLMTSEIHNTVKIIPDSKINVPELPTPDEDNKLEVQKVSNTQYHEVMNLEPENTLDQHSFSLPTCRISESVKKLMELAYQTLLEATTSSDQCAVQLFYSVRNIFHLFHDVVPTYHKENLQKLPQLAAIHHNNCMYIAHHLLTLGHQFRLRLAPILCDGTATFVDLVPGFRRLGTECFLAQMRAQKGELLERLSSARNFSNMDDEENYSAASKAVRQVLHQLKRLGIVWQDVLPVNIYCKAMGTLLNTAISEVIGKITALEDISTEDGDRLYSLCKTVMDEGPQVFAPLSEESKNKKYQEEVPVYVPKWMPFKELMMMLQASLQEIGDRWADGKGPLAAAFSSSEVKALIRALFQNTERRAAALAKIK
HEK293T cells
  Difference log2 E6/Ctrl: 1.251
  Ratio E6/Ctrl: 2.38
  Difference log2 dPBM/E6: -3.211
  Ratio dPBM/E6: 0.108
  Difference log2 dPBM/Ctrl: -1.96
  Ratio dPBM/Ctrl: 0.2569

B2: SRSF3 (protein, UniProt P84103 1-164, looked up)
Serine/arginine-rich splicing …: MHRDSCPLDCKVYVGNLGNNGNKTELERAFGYYGPLRSVWVARNPPGFAFVEFEDPRDAADAVRELDGRTLCGCRVRVELSNGEKRSRNRGPPPSWGRRPRDDYRRRSPPPRRRSPRRRSFSRSRSRSLSRDRRRERSLSRERNHKPSRSFSRSRSRSRSNERK
HaCat cell extract preys; [2]
  Fold changes, HaCat, DLG1_1: 0.6471
HaCat cell extract preys; [3]
  Fold changes, HaCat, DLG1_2: 0.7027
HaCat cell extract preys; [4]
  Fold changes, HaCat, SCRIB_1: 0.4366
HaCat cell extract preys; [5]
  Fold changes, HaCat, SCRIB_2: 0.378
HaCat cell extract preys; [6]
  Fold changes, HaCat, SNX27: 0.5499
HaCat cell extract preys; [7]
  Fold changes, HaCat, TX1BP3: 0.6457
HeLa cell extract preys; bait MBP-PDZ DLG1_1
  Fold changes, HeLa, DLG1_1: 8.89
HeLa cell extract preys; bait MBP-PDZ DLG1_2
  Fold changes, HeLa, DLG1_2: 0.7503
HeLa cell extract preys; bait MBP-PDZ SCRIB_1
  Fold changes, HeLa, SCRIB_1: 8.2529
HeLa cell extract preys; bait MBP-PDZ SCRIB_2
  Fold changes, HeLa, SCRIB_2: 6.813
HeLa cell extract preys; bait MBP-PDZ SNX27
  Fold changes, HeLa, SNX27: 0.891
HeLa cell extract preys; bait MBP-PDZ TX1BP3
  Fold changes, HeLa, TX1BP3: 0.5408
[1]; [2]
  Fold changes, Jurkat, DLG1_1: 0.942
[1]; [3]
  Fold changes, Jurkat, DLG1_2: 1.581
[1]; [4]
  Fold changes, Jurkat, SCRIB_1: 0.6991
[1]; [5]
  Fold changes, Jurkat, SCRIB_2: 0.9858
[1]; [6]
  Fold changes, Jurkat, SNX27: 1.323
[1]; [7]
  Fold changes, Jurkat, TX1BP3: 0.7942

B3: ARHGEF6 (protein, UniProt Q15052 1-776, looked up)
Rho guanine nucleotide …: MNPEEQIVTWLISLGVLESPKKTICDPEEFLKSSLKNGVVLCKLINRLMPGSVEKFCLDPQTEADCINNINDFLKGCATLQVEIFDPDDLYSGVNFSKVLSTLLAVNKATEDQLSERPCGRSSSLSAANTSQTNPQGAVSSTVSGLQRQSKTVEMTENGSHQLIVKARFNFKQTNEDELSVCKGDIIYVTRVEEGGWWEGTLNGRTGWFPSNYVREIKSSERPLSPKAVKGFETAPLTKNYYTVVLQNILDTEKEYAKELQSLLVTYLRPLQSNNNLSTVEVTSLLGNFEEVCTFQQTLCQALEECSKFPENQHKVGGCLLSLMPHFKSMYLAYCANHPSAVNVLTQHSDELEQFMENQGASSPGILILTTNLSKPFMRLEKYVTLLQELERHMEDTHPDHQDILKAIVAFKTLMGQCQDLRKRKQLELQILSEPIQAWEGEDIKNLGNVIFMSQVMVQYGACEEKEERYLMLFSNVLIMLSASPRMSGFIYQGKIPIAGTVVTRLDEIEGNDCTFEITGNTVERIVVHCNNNQDFQEWLEQLNRLIRGPASCSSLSKTSSSSCSAHSSFSSTGQPRGPLEPPQIIKPWSLSCLRPAPPLRPSAALGYKERMSYILKESSKSPKTMKKFLHKRKTERKPSEEEYVIRKSTAALEEDAQILKVIEAYCTSANFQQGHGSSTRKDSIPQVLLPEEEKLIIEETRSNGQTIMEEKSLVDTVYALKDEVRELKQENKRMKQCLEEELKSRRDLEKLVRRLLKQTDECIRGESSSKTSILP
HaCat cell extract preys; bait SCRIB_1 PDZ vs MBP, enrichment of prey
  Difference log2: 5.7166
HaCat cell extract preys; [8]
  Ratio SCRIB_1/MBP: 52.5856
[1]; bait SCRIB_1 PDZ vs MBP
  Difference log2: 4.28
[1]; [8]
  Ratio SCRIB_1/MBP: 19.4266
[1]; bait TX1BP3 PDZ vs MBP
  Difference log2: 7.045
[1]; bait TX1BP3 PDZ, fold change of prey
  Ratio TX1BP3 / MBP: 132.089

B4: UBA6 (protein, UniProt A0AVT1 1-1052, looked up)
Ubiquitin-like …: MEGSEPVAAHQGEEASCSSWGTGSTNKNLPIMSTASVEIDDALYSRQRYVLGDTAMQKMAKSHVFLSGMGGLGLEIAKNLVLAGIKAVTIHDTEKCQAWDLGTNFFLSEDDVVNKRNRAEAVLKHIAELNPYVHVTSSSVPFNETTDLSFLDKYQCVVLTEMKLPLQKKINDFCRSQCPPIKFISADVHGIWSRLFCDFGDEFEVLDTTGEEPKEIFISNITQANPGIVTCLENHPHKLETGQFLTFREINGMTGLNGSIQQITVISPFSFSIGDTTELEPYLHGGIAVQVKTPKTVFFESLERQLKHPKCLIVDFSNPEAPLEIHTAMLALDQFQEKYSRKPNVGCQQDSEELLKLATSISETLEEKPDVNADIVHWLSWTAQGFLSPLAAAVGGVASQEVLKAVTGKFSPLCQWLYLEAADIVESLGKPECEEFLPRGDRYDALRACIGDTLCQKLQNLNIFLVGCGAIGCEMLKNFALLGVGTSKEKGMITVTDPDLIEKSNLNRQFLFRPHHIQKPKSYTAADATLKINSQIKIDAHLNKVCPTTETIYNDEFYTKQDVIITALDNVEARRYVDSRCLANLRPLLDSGTMGTKGHTEVIVPHLTESYNSHRDPPEEEIPFCTLKSFPAAIEHTIQWARDKFESSFSHKPSLFNKFWQTYSSAEEVLQKIQSGHSLEGCFQVIKLLSRRPRNWSQCVELARLKFEKYFNHKALQLLHCFPLDIRLKDGSLFWQSPKRPPSPIKFDLNEPLHLSFLQNAAKLYATVYCIPFAEEDLSADALLNILSEVKIQEFKPSNKVVQTDETARKPDHVPISSEDERNAIFQLEKAILSNEATKSDLQMAVLSFEKDDDHNGHIDFITAASNLRAKMYSIEPADRFKTKRIAGKIIPAIATTTATVSGLVALEMIKVTGGYPFEAYKNCFLNLAIPIVVFTETTEVRKTKIRNGISFTIWDRWTVHGKEDFTLLDFINAVKEKYGIEPTMVVQGVKMLYVPVMPGHAKRLKLTMHKLVKPTTEKKYVDLTVSFAPDIDGDEDLPGPPVRYYFSHDTD
HEK293T cells
  Difference log2 E6/Ctrl: -0.8956
  Ratio E6/Ctrl: 0.5375
  Difference log2 dPBM/E6: 0.6111
  Ratio dPBM/E6: 1.527
  Difference log2 dPBM/Ctrl: -0.2845
  Ratio dPBM/Ctrl: 0.821
